Reference: publication PMC5847526 (2018)

Biological target: Lumi4-Tb-SNAP-FLT3 on HEK293 cells (UniProt P36888 27-993, Lumi4-Tb on the SNAP tag)
Test: FRET

Lumi4-Tb-SNAP-FLT3 on HEK293 cells, sequence (P36888 27-993): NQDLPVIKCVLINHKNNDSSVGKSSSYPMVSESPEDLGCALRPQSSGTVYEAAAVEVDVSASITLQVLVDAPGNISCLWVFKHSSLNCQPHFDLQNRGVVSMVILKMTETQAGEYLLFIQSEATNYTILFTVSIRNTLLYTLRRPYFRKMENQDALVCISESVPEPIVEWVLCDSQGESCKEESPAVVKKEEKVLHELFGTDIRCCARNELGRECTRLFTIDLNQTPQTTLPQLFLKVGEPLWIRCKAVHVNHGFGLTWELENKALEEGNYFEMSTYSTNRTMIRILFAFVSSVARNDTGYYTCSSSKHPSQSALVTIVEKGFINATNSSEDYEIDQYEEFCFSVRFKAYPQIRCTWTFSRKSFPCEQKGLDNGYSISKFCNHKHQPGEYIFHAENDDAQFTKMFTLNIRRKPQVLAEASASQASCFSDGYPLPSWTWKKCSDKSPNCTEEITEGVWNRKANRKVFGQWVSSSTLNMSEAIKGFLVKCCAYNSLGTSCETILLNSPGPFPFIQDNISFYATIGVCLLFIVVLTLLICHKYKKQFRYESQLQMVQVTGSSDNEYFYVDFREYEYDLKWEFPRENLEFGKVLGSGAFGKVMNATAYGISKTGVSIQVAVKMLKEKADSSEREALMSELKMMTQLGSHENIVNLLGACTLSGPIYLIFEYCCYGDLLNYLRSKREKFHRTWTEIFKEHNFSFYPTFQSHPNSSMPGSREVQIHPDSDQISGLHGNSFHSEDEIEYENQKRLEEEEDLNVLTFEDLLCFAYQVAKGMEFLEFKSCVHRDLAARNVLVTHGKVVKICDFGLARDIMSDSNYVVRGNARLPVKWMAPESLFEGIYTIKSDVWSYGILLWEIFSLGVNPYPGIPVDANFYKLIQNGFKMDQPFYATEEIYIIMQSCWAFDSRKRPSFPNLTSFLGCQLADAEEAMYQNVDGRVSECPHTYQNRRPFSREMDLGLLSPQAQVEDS

B1: human recombinant FL (rh-FLT3-L), labelled as Red-FL (ligand)
chain: TQDCSFQHSPISSDFAVKIRELSDYLLQDYPVTVASNLQDEELCGGLWRLVLAQRWMERLKTVAGSKMQGLLERVNTEIHFVTKCAFQPPPSCLRFVQTNISRLLQETSEQLVALKPWITRQNFSRCLELQCQPDSSTLPPPWSPRPLEATAPTAPQPPLLLLLLLPVGLLLLAAAWCLHWQRTRRRTPRPGEQVPPVPSPQDLLLVEH
modifications: red fluorophore (Red-FL), position not stated
IC50: 0.57 nM
